The target of one data set is T1, REST-FL (human, UniProt Q13127 1-1097).
T1 sequence: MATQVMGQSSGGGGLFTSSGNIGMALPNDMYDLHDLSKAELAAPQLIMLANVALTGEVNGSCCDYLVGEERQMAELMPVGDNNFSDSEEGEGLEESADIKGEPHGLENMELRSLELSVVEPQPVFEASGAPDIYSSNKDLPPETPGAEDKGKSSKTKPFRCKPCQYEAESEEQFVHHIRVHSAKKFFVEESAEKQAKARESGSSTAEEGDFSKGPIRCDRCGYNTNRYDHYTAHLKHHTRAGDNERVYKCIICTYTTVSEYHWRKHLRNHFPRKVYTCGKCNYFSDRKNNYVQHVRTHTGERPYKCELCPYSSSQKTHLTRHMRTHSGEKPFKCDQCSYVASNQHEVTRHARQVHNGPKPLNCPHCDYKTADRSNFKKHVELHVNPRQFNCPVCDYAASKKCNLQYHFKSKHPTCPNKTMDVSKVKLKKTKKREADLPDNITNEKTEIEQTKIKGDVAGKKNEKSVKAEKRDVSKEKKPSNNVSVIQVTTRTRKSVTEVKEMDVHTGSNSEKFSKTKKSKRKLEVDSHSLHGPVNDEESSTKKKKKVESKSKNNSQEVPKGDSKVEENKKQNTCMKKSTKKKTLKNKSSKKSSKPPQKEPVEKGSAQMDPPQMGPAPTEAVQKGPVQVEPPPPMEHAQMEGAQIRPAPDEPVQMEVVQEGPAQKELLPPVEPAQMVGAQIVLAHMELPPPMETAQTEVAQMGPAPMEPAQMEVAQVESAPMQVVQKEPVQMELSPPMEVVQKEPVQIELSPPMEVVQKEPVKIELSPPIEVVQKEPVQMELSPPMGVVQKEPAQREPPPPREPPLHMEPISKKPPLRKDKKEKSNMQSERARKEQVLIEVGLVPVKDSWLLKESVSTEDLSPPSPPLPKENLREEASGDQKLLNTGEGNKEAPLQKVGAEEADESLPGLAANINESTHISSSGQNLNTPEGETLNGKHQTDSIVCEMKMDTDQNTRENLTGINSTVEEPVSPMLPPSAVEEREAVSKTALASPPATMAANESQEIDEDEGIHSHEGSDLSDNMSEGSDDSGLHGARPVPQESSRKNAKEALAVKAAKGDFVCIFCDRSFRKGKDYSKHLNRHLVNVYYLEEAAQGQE
Nature of the data set: fluorescence anisotropy.

The target of a further data set is T2, REST-N62 (REST4-S3) (human, UniProt A0A087X1C2 1-340).
T2 sequence: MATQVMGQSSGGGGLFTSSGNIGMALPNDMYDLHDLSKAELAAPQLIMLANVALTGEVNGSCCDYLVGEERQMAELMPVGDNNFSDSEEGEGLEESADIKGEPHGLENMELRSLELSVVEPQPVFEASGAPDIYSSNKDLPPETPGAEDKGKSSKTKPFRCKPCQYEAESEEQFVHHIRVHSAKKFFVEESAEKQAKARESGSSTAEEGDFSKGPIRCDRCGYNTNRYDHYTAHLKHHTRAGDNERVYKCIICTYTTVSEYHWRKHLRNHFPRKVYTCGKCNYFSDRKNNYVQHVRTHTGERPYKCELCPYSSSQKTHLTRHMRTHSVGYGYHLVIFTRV
Put plainly: fluorescence anisotropy.

The source of these data is paper PMC9860152.

B1: NRSE (RE1) 21 bp duplex (dsDNA)
DNA 1: TTCAGCACCATGGACAGCGCC
DNA 2: GGCGCTGTCCATGGTGCTGAA
Take B1: the Kd with REST-FL was 5.7 ± 0.6 nM. Further, the binding result with REST-N62 (REST4-S3) was “no binding”.
